Reference: article PMC5849085 (Immunity, 2017)

Tests used:
[1] = target: T1, human IL-1RAcP (residues 1-350) (human, UniProt Q9NPH3 21-350); assay: HDX-MS
T1 sequence (looked up): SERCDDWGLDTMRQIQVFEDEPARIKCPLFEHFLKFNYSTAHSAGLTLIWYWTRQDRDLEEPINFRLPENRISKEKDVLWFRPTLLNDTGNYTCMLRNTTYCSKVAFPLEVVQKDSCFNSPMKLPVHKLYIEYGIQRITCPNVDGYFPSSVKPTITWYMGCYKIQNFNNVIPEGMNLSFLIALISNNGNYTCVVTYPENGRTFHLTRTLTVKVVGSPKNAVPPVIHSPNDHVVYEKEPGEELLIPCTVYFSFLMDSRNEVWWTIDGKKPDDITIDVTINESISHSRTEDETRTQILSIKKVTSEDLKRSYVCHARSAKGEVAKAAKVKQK

[2] = target: T2, human IL-1RAcP (residues 1-350) fused to human IgG1-Fc (human, UniProt Q9NPH3 21-350); assay: SPR
T2 sequence (looked up): T1 sequence (looked up)

half-life of the ternary complex (EX1 kinetics of IL-1RAcP(150-156)) [1]: 10 min | half-life of the ternary complex [2]: 26 min
B1: human IL-33:ST2 binary complex (complex)
chain 1: SITGISPITEYLASLSTYNDQSITFALEDESYEIYVEDLKKDEKKDKVLLSYYESQHPSNESGDGVDGKMLMVTLSPTKDFWLHANNKEHSVELHKCEKPLPDQAFFVLHNMHSNCVSFECKTDPGVFIGVKDNHLALIKVDSSENLCTENILFKLSET
chain 2: QTGKFSKQSWGLENEALIVRCPRQGKPSYTVDWYYSQTNKSIPTQERNRVFASGQLLKFLPAAVADSGIYTCIVRSPTFNRTGYANVTIYKKQSDCNVPDYLMYSTVSGSEKNSKIYCPTIDLYNWTAPLEWFKNCQALQGSRYRAHKSFLVIDNVMTEDAGDYTCKFIHNENGANYSVTATRSFTVKDEQGFSLFPVIGAPAQNEIKEVEIGKNANLTCSACFGKGTQFLAAVLWQLNGTKITDFGEPRIQQEEGQNQSFSNGLACLDMVLRIADVKEEDLLLQYDCLALNLHGLRRHTVRLSRK
